Measured values: PMC7859323
“And” between values parts separate entries of the source, which are not always exact repeats. Equal values may be shown once.

Biological target: Gla domainless factor VIIa (human) (UniProt P08709)
Test: titration of enzyme activity (rate of FX activation by des Gla-FVIIa)

Sequence of UniProt P08709 (P08709 21-466, chain 1 of 2): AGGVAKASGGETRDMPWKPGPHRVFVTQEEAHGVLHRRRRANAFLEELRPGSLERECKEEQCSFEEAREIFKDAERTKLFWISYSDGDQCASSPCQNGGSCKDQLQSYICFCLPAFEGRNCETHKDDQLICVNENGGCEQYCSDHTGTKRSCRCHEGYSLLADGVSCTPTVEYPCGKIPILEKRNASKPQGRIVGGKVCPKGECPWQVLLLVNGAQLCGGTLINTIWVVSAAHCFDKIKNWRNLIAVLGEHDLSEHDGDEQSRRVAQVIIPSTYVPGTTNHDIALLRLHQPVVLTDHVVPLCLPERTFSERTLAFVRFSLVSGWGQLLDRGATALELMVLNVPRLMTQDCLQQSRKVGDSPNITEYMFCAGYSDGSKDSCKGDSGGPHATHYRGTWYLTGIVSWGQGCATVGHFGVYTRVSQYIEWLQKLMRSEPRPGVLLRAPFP
Sequence of UniProt P08709 (P08709 213-466, chain 2 of 2): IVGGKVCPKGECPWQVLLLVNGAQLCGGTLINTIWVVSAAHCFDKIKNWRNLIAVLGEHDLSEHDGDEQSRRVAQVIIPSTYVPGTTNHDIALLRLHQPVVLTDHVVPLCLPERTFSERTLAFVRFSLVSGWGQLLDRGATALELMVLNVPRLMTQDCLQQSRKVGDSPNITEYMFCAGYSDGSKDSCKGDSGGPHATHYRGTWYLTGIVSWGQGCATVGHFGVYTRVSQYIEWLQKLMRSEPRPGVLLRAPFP

With “recombinant soluble tissue factor (from UniProt P13726 33-251) (domain or fragment)” the Kd was 5 nM and 2.7 nM.
